Two molecules from article PMC4835898 (Frontiers in Microbiology, 2016) can be followed below.

Test [1] deals with T1, Bacillus subtilis DnaK Y601F, 6xHis-tagged (Bacillus subtilis 168, UniProt P17820 1-611, Y601F, to some extent phosphorylated during heterologous expression in E. coli (on residues other than 601); residues not told for this preparation).
T1 construct: the mutant is described as a version of the same protein in the same vector; source: E. coli (NEB Express Iq), purified (Ni-NTA, desalted on PD-10); not shown: 6xHis, N-terminal, kept
The experiment in a line: pull-down; 100 ug 6xHis-DnaK (WT or Y601F) and 100 ug Strep-tagged DnaJ or GrpE incubated with 1 ug anti-6xHis antibody (HIS.H8) in 450 uL IP Lysis/Wash Buffer (Pierce Classic IP Kit); captured on Protein A/G agarose; eluates blotted with anti-Strep tag and anti-His tag. The following applies: both partners purified.

In test [2] the target is T2, Bacillus subtilis DnaK wild type, 6xHis-tagged (Bacillus subtilis 168, UniProt P17820 1-611, to some extent phosphorylated (phosphotyrosine signal) during heterologous expression in E. coli; residues and extent not told for this preparation).
T2 construct: probably the whole ORF, since Y601 lies near the C-terminus; also called DnaK WT; WT DnaK; source: E. coli (NEB Express Iq), purified (Ni-NTA, desalted on PD-10); not shown: 6xHis, N-terminal, kept
The description is as above. The following applies: both partners purified.

B1: Bacillus subtilis GrpE, Strep-tagged (natural protein, Bacillus subtilis 168, UniProt P15874 1-187, looked up)
chain: MSEEKQTVEQNETEEQEIIEEQAAADEQQEETNESELLQNQINELQGLLEEKENKLLRVQADFENYKRRSRLEMEASQKYRSQNIVTDLLPALDSFERALQVEADNEQTKSLLQGMEMVHRQLVEALKKEGVEAIEAVGQEFDPNLHQAVMQAEDENYGSNIVVEEMQKGYKLKDRVIRPSMVKVNQ
notes: Made in a pQE-30 vector in which the His-tag was replaced by a strep-tag (Jers et al., 2010)
In the case of B1, the binding result in test [1] and in test [2] was “binds” each time.

B2: Bacillus subtilis DnaJ, Strep-tagged (natural protein)
chain: not shown
notes: as for B1
As for B2, the binding result in test [1] and in test [2] was “binds” in each case.
